# Reference: US20150344570A1 (published 2015)
# B1: GpH7-A5/GpH7-B3 variant T335_20W/GpL16-k0 (antibody, human IgG1, kappa)
# heavy 1: not shown
# heavy 2: not shown
# light: DIVMTQSPLSLPVTPGEPASISCQASESLVHSNRNTYLHWYLQKPGQSPQLLIYKVSNRFSGVPDRFSGSGSGTDFTLKISRVEAEDVGVYYCSQNTHVPPTFGQGTKVEIERTVAAPSVFIFPPSDEQLKSGTASVVCLLNNFYPREAKVQWKVDNALQSGNSQESVTEQDSKDSTYSLSSTLTLSKADYEKHKVYACEVTHQGLSSPVTKSFNRGEC
# notes: heterodimerized IgG1, mutation in one H chain only; also called He Ab
# B2: GpH7-A5/GpH7-B3 variant S337_10E/GpL16-k0 (antibody, human IgG1, kappa)
# heavy 1: not shown
# heavy 2: not shown
# light: B1 light
# notes: as for B1
# B3: GpH7-A5/GpH7-B3 variant T335_10E/GpL16-k0 (antibody, human IgG1, kappa)
# heavy 1: not shown
# heavy 2: not shown
# light: B1 light
# notes: as for B1
# B4: GpH7-A5/GpH7-B3 variant S337_07I/GpL16-k0 (antibody, human IgG1, kappa)
# heavy 1: not shown
# heavy 2: not shown
# light: B1 light
# notes: as for B1
# B5: GpH7-A5/GpH7-B3 variant I336_14T/GpL16-k0 (antibody, human IgG1, kappa)
# heavy 1: not shown
# heavy 2: not shown
# light: B1 light
# notes: as for B1
# B6: GpH7-A5/GpH7-B3 variant D265_10E/GpL16-k0 (antibody, human IgG1, kappa)
# heavy 1: not shown
# heavy 2: not shown
# light: B1 light
# notes: as for B1
# B7: GpH7-A5/GpH7-B3 variant S337_15Y/GpL16-k0 (antibody, human IgG1, kappa)
# heavy 1: not shown
# heavy 2: not shown
# light: B1 light
# notes: as for B1
# B8: GpH7-A5/GpH7-B3 variant I336_09D/GpL16-k0 (antibody, human IgG1, kappa)
# heavy 1: not shown
# heavy 2: not shown
# light: B1 light
# notes: as for B1
# B9: GpH7-A5/GpH7-B3 variant Y300_02A/GpL16-k0 (antibody, human IgG1, kappa)
# heavy 1: not shown
# heavy 2: not shown
# light: B1 light
# notes: as for B1
# B10: GpH7-A5/GpH7-B3 variant T335_16H/GpL16-k0 (antibody, human IgG1, kappa)
# heavy 1: not shown
# heavy 2: not shown
# light: B1 light
# notes: as for B1
# B11: GpH7-A5/GpH7-B3 variant S337_06M/GpL16-k0 (antibody, human IgG1, kappa)
# heavy 1: not shown
# heavy 2: not shown
# light: B1 light
# notes: as for B1
# B12: GpH7-A5/GpH7-B3 variant Y296_06M/GpL16-k0 (antibody, human IgG1, kappa)
# heavy 1: not shown
# heavy 2: not shown
# light: B1 light
# notes: as for B1
# B13: GpH7-A5/GpH7-B3 variant H268_18N/GpL16-k0 (antibody, human IgG1, kappa)
# heavy 1: not shown
# heavy 2: not shown
# light: B1 light
# notes: as for B1
# B14: GpH7-A5/GpH7-B3 variant S337_04F/GpL16-k0 (antibody, human IgG1, kappa)
# heavy 1: not shown
# heavy 2: not shown
# light: B1 light
# notes: as for B1
# B15: GpH7-A5/GpH7-B3 variant T335_05P/GpL16-k0 (antibody, human IgG1, kappa)
# heavy 1: not shown
# heavy 2: not shown
# light: B1 light
# notes: as for B1
# B16: GpH7-A5/GpH7-B3 variant T335_06M/GpL16-k0 (antibody, human IgG1, kappa)
# heavy 1: not shown
# heavy 2: not shown
# light: B1 light
# notes: as for B1
# B17: GpH7-A5/GpH7-B3 variant T335_09D/GpL16-k0 (antibody, human IgG1, kappa)
# heavy 1: not shown
# heavy 2: not shown
# light: B1 light
# notes: as for B1
# B18: GpH7-A5/GpH7-B3 variant Y296_16H/GpL16-k0 (antibody, human IgG1, kappa)
# heavy 1: not shown
# heavy 2: not shown
# light: B1 light
# notes: as for B1
# B19: GpH7-A5/GpH7-B3 variant Y296_20W/GpL16-k0 (antibody, human IgG1, kappa)
# heavy 1: not shown
# heavy 2: not shown
# light: B1 light
# notes: as for B1
# B20: GpH7-A5/GpH7-B3 variant S337_08L/GpL16-k0 (antibody, human IgG1, kappa)
# heavy 1: not shown
# heavy 2: not shown
# light: B1 light
# notes: as for B1
# B21: GpH7-A5/GpH7-B3 variant T335_12R/GpL16-k0 (antibody, human IgG1, kappa)
# heavy 1: not shown
# heavy 2: not shown
# light: B1 light
# notes: as for B1
# B22: GpH7-A5/GpH7-B3 variant T335_18N/GpL16-k0 (antibody, human IgG1, kappa)
# heavy 1: not shown
# heavy 2: not shown
# light: B1 light
# notes: as for B1
# B23: GpH7-A5/GpH7-B3 variant T335_07I/GpL16-k0 (antibody, human IgG1, kappa)
# heavy 1: not shown
# heavy 2: not shown
# light: B1 light
# notes: as for B1
# B24: GpH7-A5/GpH7-B3 variant A330_20W/GpL16-k0 (antibody, human IgG1, kappa)
# heavy 1: not shown
# heavy 2: not shown
# light: B1 light
# notes: as for B1
# B25: GpH7-A5/GpH7-B3 variant T335_11K/GpL16-k0 (antibody, human IgG1, kappa)
# heavy 1: not shown
# heavy 2: not shown
# light: B1 light
# notes: as for B1
# B26: GpH7-A5/GpH7-B3 variant A330_01G/GpL16-k0 (antibody, human IgG1, kappa)
# heavy 1: not shown
# heavy 2: not shown
# light: B1 light
# notes: as for B1
# B27: GpH7-A5/GpH7-B3 variant S337_19Q/GpL16-k0 (antibody, human IgG1, kappa)
# heavy 1: not shown
# heavy 2: not shown
# light: B1 light
# notes: as for B1
# B28: GpH7-A5/GpH7-B3 variant T335_15Y/GpL16-k0 (antibody, human IgG1, kappa)
# heavy 1: not shown
# heavy 2: not shown
# light: B1 light
# notes: as for B1
# B29: GpH7-A5/GpH7-B3 variant T335_08L/GpL16-k0 (antibody, human IgG1, kappa)
# heavy 1: not shown
# heavy 2: not shown
# light: B1 light
# notes: as for B1
# B30: GpH7-A5/GpH7-B3 variant A330_19Q/GpL16-k0 (antibody, human IgG1, kappa)
# heavy 1: not shown
# heavy 2: not shown
# light: B1 light
# notes: as for B1
# Target: T1, FcγRIa (human, UniProt P12314 16-292)
# T1 construct: extracellular domain; soluble His-tagged extracellular domain expressed in FreeStyle293 cells, used as analyte in Biacore; also called FcgRI; CD64
# Test: SPR (Biacore), captured antibody, FcγRIa analyte; relative to GpH7-A5/GpH7-B3/GpL16-k0
# T1 sequence (P12314 16-292): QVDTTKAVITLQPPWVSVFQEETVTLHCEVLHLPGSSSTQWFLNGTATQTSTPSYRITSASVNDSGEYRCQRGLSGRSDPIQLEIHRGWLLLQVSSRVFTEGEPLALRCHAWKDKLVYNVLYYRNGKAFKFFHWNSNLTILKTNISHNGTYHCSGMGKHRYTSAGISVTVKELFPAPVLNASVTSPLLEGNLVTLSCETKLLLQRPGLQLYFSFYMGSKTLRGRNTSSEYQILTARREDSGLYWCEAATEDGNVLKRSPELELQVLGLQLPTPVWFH
row,He/Con_1a,Binder
1,"106 relative, control = 100",B1
2,"106 relative, control = 100",B2
3,"109 relative, control = 100",B3
4,"105 relative, control = 100",B4
5,"104 relative, control = 100",B5
6,"101 relative, control = 100",B6
7,"104 relative, control = 100",B7
8,"104 relative, control = 100",B8
9,"112 relative, control = 100",B9
10,"106 relative, control = 100",B10
11,"107 relative, control = 100",B11
12,"104 relative, control = 100",B12
13,"108 relative, control = 100",B13
14,"106 relative, control = 100",B14
15,"106 relative, control = 100",B15
16,"107 relative, control = 100",B16
17,"108 relative, control = 100",B17
18,"106 relative, control = 100",B18
19,"111 relative, control = 100",B19
20,"105 relative, control = 100",B20
21,"113 relative, control = 100",B21
22,"106 relative, control = 100",B22
23,"109 relative, control = 100",B23
24,"108 relative, control = 100",B24
25,"111 relative, control = 100",B25
26,"106 relative, control = 100",B26
27,"105 relative, control = 100",B27
28,"107 relative, control = 100",B28
29,"115 relative, control = 100",B29
30,"105 relative, control = 100",B30
